These results are taken from the nanobody polyreactivity screen of Harvey et al. (2022).

This series in a line: yeast display, Sf9 membrane polyspecificity reagent, FACS + sequencing; frameworks hold sequencing errors. The gist of the method: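 A nanobody's polyreactivity label depends on the gate it was sorted from. Yeast display cells were stained with 10% biotinylated, detergent-solubilized Sf9 membrane reagent for 1 hour at 4 °C, enriched on streptavidin microbeads and sorted by FACS. The low and high (top ~1%) gates were set on anti-HA fluorescence for expression and streptavidin fluorescence for reagent binding.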
For “EEELVESGGGIVQAGGSLRLSCAASGFIFGYNAMGWYRQAPGKERELVAAISSGDDTNYADSVKGRFTISRDNAKNTVYLQMNSLKPEDTAVYYCAAEVWTAFTLGSYWSVVDYDYWGQGTQVSVSS”, the “polyreactivity (PSR sort gate)” value was “low polyreactivity”.

Regarding “EEELVESGGGLVQAGGSLRLSCAASGSTFLVYAMGWYRQAPGKERELVAVITSGGRTNYADSVKGRFTISRDNAKNTVYLQMNSLKPEDTAVYYCAVDGRSVPAWWPRFDYWGQGTQVTVSS”, the “polyreactivity (PSR sort gate)” value is “low polyreactivity”.

As for “EVQLVESGGGLDQAGGSLRLICAASARTFIWNAMGWYRQEPGKERDLVAAITRNGDSTYYADSVKGRFTISRDNAKNTVYLQMNRLKPEDTAVYYCAAYSRVFVYRTVGNYGWMNYWGQGTQVTVSS”, the “polyreactivity (PSR sort gate)” value is “high polyreactivity”.

On to “EVQLVESGGGLVQAGGSLRLSCAASGFIFGYNAMGWYRQAPGKERDLVAAISWSGGSTYYADSVKGRYTISRDNAKNTVYLQMNSLKPEDTAVYYCNRGYTAQVFTEFDYWGQGTLVTVSS”, for which the “polyreactivity (PSR sort gate)” value is recorded as “low polyreactivity”.

In the case of “EVQLVESGGGLVQPGGSLRLSCAASGYIYSRYRMGWYRQAPGKGREFVAAISGGSSTNYADSVKGRFTISRDNSKNTVYLQMNSLRAEDTAVYYCAAYQIDSDPRVYWGQGTQVTVSS”, the “polyreactivity (PSR sort gate)” value is reported as “low polyreactivity”.

“EVQLVESGGGLVQPGGSLRLSCAASGYIYSRYRMGWYRQAPGKGREFVAAISGGSSTNYADSVKGRFTISRDNSKYTVYLQMNSLRADDTALYYCAAYKIDSDPRVYWGQGTQVTVSS”: the “polyreactivity (PSR sort gate)” value is on record as “low polyreactivity”.

On to “HAQLQESGGCLVQAGGSLRPSCAASGSIFRVSGMGWYRRAPGKERELVASIGFGSITYYADRVKGRFTISRDNAINTVYLQMNSLKPEDTAVYYCAVQVQDESWLDYWGQGTQVTVSC”, for which the “polyreactivity (PSR sort gate)” value is listed as “low polyreactivity”.

With “HDQLVESGGGLVQAGGSLRLSCAASGSTFTINVMGWYRQAPGKERELVAAINGGGRTNYADSVKGRFTISRDNAKNTVYVQMNILKPEDTAVYYCAADGLSNVRQMDYWGQGTQVTVSS”, the “polyreactivity (PSR sort gate)” value was “low polyreactivity”.

With “HFQLVESGGGLVQAGGSLRLSCAASVFIILINVMGWSRQAPGKERELVAVITGGGTTNYADSVKGRFTISRDNANNTVYLQMNSLKPVDTAGYYCAVDAGAGDNDYWGQGTQVTVSS”, the “polyreactivity (PSR sort gate)” value is “low polyreactivity”.

As for “HVHLVESGGGLVQAGGSLRLSCAASGRTFSRYAMGWYRQAPGKERELVAAITSGGSTNYADSVKGRFTISRDNAKNTVYLQKNSLKPEDTAVYYCAKRYFRSSRDGLGTTHPYDYWGQGTQVTVSS”, the “polyreactivity (PSR sort gate)” value is recorded as “high polyreactivity”.

As to “HVHLVESGGGLVQAGGSLRLSCAASGRTFSTYAMGRYRQAPGKERELVATIRVSGSSTYYADSVKGRFTISRDNAKNTVYLQMNSLKQEDTEVYYCANRGLSRYYDYYYWGQGTQVTVSS”, the “polyreactivity (PSR sort gate)” value was “high polyreactivity”.

For “HVHLVESGGGLVQAGGSLRLSCASSGPTFGWNVMGWYRQAPGKERELVAAISGSGGSTYYADSVKGRFTISRDNAKNTVYSQMNSLKPEDTAVYYCAALYGPGREYDYWGQGTQVSVSS”, the “polyreactivity (PSR sort gate)” value is on record as “low polyreactivity”.

With “HVHLVESGGGLVQAGGSLSLICAASGFIFRYYAMGWYRQAPGTEREVVAAITRGGSTYYADSVKGRFTISRDNAKNTVYLQMNSLKPVATAVYYCAARLYTQYYYWGQGTQVTVSS”, the “polyreactivity (PSR sort gate)” value is recorded as “high polyreactivity”.

With “HVLLVESGGGLVQAGGSLRLSFAATAFTFTYYTMGSYRQAPGKETELVAAITSSGGSTYYADSVMGRFTISRDNANNTVYLQMNSLKPEDTAVYYCAASRYSTRFGARVYWGQVTQVTVSS”, the “polyreactivity (PSR sort gate)” value is on record as “high polyreactivity”.

Consider “HVQHVESGGGLVHAGGSLRLRCAASGSIFVYYAMGWYRQAPGKERELVAAISGGGGRKYYADSVKGRFTISRDNANNTVYLQMNSLKPDDTAVYYCAARRATYPGGFYSWGQGSQVTVSS”, for which the “polyreactivity (PSR sort gate)” value was “high polyreactivity”.

“HVQIVESGGGLVQAGGSLRLSCAASGRIFVPYVMGWYRQAPGKERELVASISDSDTSTYYADSVKGRFTISRDNAKNTVYLQINSLKPEDTAVYYCNVDNWGQGTQVTVSS”: the “polyreactivity (PSR sort gate)” value was “low polyreactivity”.

Take “HVQLEESGGGLDQAGGSLRLSCAASGITFVRNAMGWYRQAPGKERELVAVITSGGGTYYADSVKGRFTISRDNAKNTVYLQMNSLKPEDTAVYYWAGDIHVNGSGYWGKGTQVTVSS”: the “polyreactivity (PSR sort gate)” value is listed as “low polyreactivity”.

Regarding “HVQLQESGGGLMQAGGSQRLSCAASGSISYNSDMGWYRQAPGKEREFVAGIGYGTTTNYADSVKGRFTTSRDNAKNTVYLQMISMKPEDTEVYYCAAYQGNGYEFYYWGQGTQVTVRS”, the “polyreactivity (PSR sort gate)” value is “low polyreactivity”.

In the case of “HVQLVDSGGGLVQAGGSLRLTCAASGNIFVPYAMGWYRQAPGKERELVAAINGGGSTNYADSLKGRFTISRDNAKNTVYLQMNSLKPEDTAVYYCAAVWYFLSLWYDYWGQGTQVTVSS”, the “polyreactivity (PSR sort gate)” value is “high polyreactivity”.

For the sequence “HVQLVDSSGRVVQARCSLRLSCAASGSTFHDNAMGWYRQAPGKDRDLEAAISSGGRTNYADSVKGRFTISRDNAKNTVYLQMNCLKPEDTAVYYCAASFRRWYFYARHDYGYWGLGTQVTVSS”, the “polyreactivity (PSR sort gate)” value was “low polyreactivity”.

Turning to “HVQLVESAGGLVQAGGSLRLSCAASGFIFGYYAMGWYRQAPGKERELVAAINYNDDSTYYADSVKGRFTISRDNAKNTVYLQMNSLKPEDTAVYYCAVRRWDAGDYWGQGTQVTVSS”, the “polyreactivity (PSR sort gate)” value is “low polyreactivity”.

Turning to “HVQLVESAGGLVQAGGSLRVSCAASGRTFVENAMGWYRQAPGKERELVAAITYRGGRTFYADSVKGRFTISLDNAKNTVYLQMNSLTPEETAVYYCNAVRRTGGHGDYWGHGTQVTVSS”, the “polyreactivity (PSR sort gate)” value is recorded as “high polyreactivity”.

In the case of “HVQLVESAGGLVQARGSLRLSCAASGSIFVTYAMGWYRQARGKERELVATITYSGGSTSYADSVKGRFTISRDNAKITVYLQMNSLKPDDTAVYFCAADLDSDFDYWGQGTQVTVSS”, the “polyreactivity (PSR sort gate)” value is listed as “low polyreactivity”.

As to “HVQLVESGGGLVQAGGSLRESCAASGRTFDDIAMGRYRQAPGKERELVAAINWSGASTYYADSVKGRFTISRDNAKNTVYLQMNSLKPEDTAVYYCAAVFWKSDSAYYEYGYWGQGTQVTVSS”, the “polyreactivity (PSR sort gate)” value was “low polyreactivity”.

With “HVQLVESGGGLVQAGGSLRFSCAASGFIFTNYAMGWYRQAPGTERELVAAISFSGSSTYYADSVKGRFTISRDNAKNTVYLQMNSLNPEDTAVYYCAVDGVPSSFSHDYWGQGTKVTVSS”, the “polyreactivity (PSR sort gate)” value is on record as “low polyreactivity”.

For the sequence “HVQLVESGGGLVQAGGSLRISCAASGLIFVFYAMGWYRQAPGKERELVAAISTSGDRTYYADSVKGRFTISRDNAKNTVYLQMISLKPEDTAVYFCNARRLGYRSGHPGYYWGQGTQVTVSS”, the “polyreactivity (PSR sort gate)” value is “high polyreactivity”.

“HVQLVESGGGLVQAGGSLRISCAASGRTFGHYAMGWNRQAPGKQRELVAVISGRNGDSTYYADSVKGRFTISRDNAKNTVYLQMNSLKPVYTAVYYCAAYKPWEYDYWGQGTEVTVSS”: the “polyreactivity (PSR sort gate)” value was “low polyreactivity”.

Take “HVQLVESGGGLVQAGGSLRLRCAASGFTFYYNAMGWSRQAPGKERELVAAISTRGGNTYYADSVKGRFTISRDYAKNTVYLQRNSLKPEATAVYYCARIIRREGRYDYWGHGTQVTVSS”: the “polyreactivity (PSR sort gate)” value is recorded as “high polyreactivity”.

On to “HVQLVESGGGLVQAGGSLRLSCAASGFTFANNAMGWYRQAPRKERELVAAISRSGGSTYYADSVKGRFTISRDNAKNTVYLQMNSLKPEDTAVYYCAVYNRPYKEYGYNYWGQGTQVTVSS”, for which the “polyreactivity (PSR sort gate)” value was “high polyreactivity”.

In the case of “HVQLVESGGGLVQAGGSLRLSCAASGFTFVPYAMGWYRQAPGKERELVAAISSGGSTYYADSVKGRFTISRDNAKNTVYLQMNSLKPEDTAVYYCATTGWYRYGRKFYYWGQGTQVTVSS”, the “polyreactivity (PSR sort gate)” value is recorded as “high polyreactivity”.

On to “HVQLVESGGGLVQAGGSLRLSCAASGGISIDNVMGWYRQATGKERELVAAISKSGGRTFYADSVKGRFTISRDNAKNTVYLQMNSLKPEDTAVYYCAKLYISKPYWYEHEYWGQGTQVTVSS”, for which the “polyreactivity (PSR sort gate)” value is listed as “high polyreactivity”.

Take “HVQLVESGGGLVQAGGSLRLSCAASGLTFAQYAMGWYRQAPGNERALVAAITGSGGSTYYADSVKGRFTISRDNAKNTVYLQLNSLKPEDTAVYYCNKLFYRWRIVDKYYYWGQGTQVTVSS”: the “polyreactivity (PSR sort gate)” value is given as “high polyreactivity”.

Consider “HVQLVESGGGLVQAGGSLRLSCAASGNIFVRYAMGWYRPAPGKERELVAAISSSGGRTYYADSVKGRFTISRDNAKNTVYLQMNSLKPEDTAVYYCATGRPSHNRYDYWGQGTQVTVSS”, for which the “polyreactivity (PSR sort gate)” value is listed as “high polyreactivity”.

Regarding “HVQLVESGGGLVQAGGSLRLSCAASGRIFGRNAMGWYRQAPGKERELVAAISSGGSTYYADSVKGRLTISRDNAKNTVYLQMNSLKPEDTAVYYFAVRGSYYNGGRAFESWGQGTQVTVSS”, the “polyreactivity (PSR sort gate)” value is listed as “high polyreactivity”.

Consider “HVQLVESGGGLVQAGGSLRLSCAASGRIFPSNTMGWYRQAPGKERELVAAITRGDRTNYADSVKGRFTISRDNAKNTVYLQMNSLKPVDTAVYYCNARWGLPFGSGYYYWGQGTQVTVSS”, for which the “polyreactivity (PSR sort gate)” value is on record as “low polyreactivity”.

As to “HVQLVESGGGLVQAGGSLRLSCAASGRIFVDYVMGWYRQAPGKERELVARITWIGGNTYYADSVKGRFTISRDNAKNTVYFQMNCLKPEDTAVYYSNAGLTLLSRRHEGWYGDDYWGPGTQVTVSS”, the “polyreactivity (PSR sort gate)” value is reported as “low polyreactivity”.

In the case of “HVQLVESGGGLVQAGGSLRLSCAASGRIFVVYTMGWYRQAPGKERELVASIRGSGDSTNYADSVKGRFTLSRDNAKNTVYLQMNRLKPEDTAVYYCAADLPWSRRYSYRYGYWGQGTQVTVSS”, the “polyreactivity (PSR sort gate)” value was “low polyreactivity”.

For “HVQLVESGGGLVQAGGSLRLSCAASGRISIRNAMGWYRQAPGKERELGAAISRSGGSTYYADSVKGRFTISRDNAKNTVYIQMNSLKPEDTAVYYCAASFWSSGQWYDYWGQGTQVTVSS”, the “polyreactivity (PSR sort gate)” value is “high polyreactivity”.

Consider “HVQLVESGGGLVQAGGSLRLSCAASGRSLSDYAMGWYRQAPGKERELVATITSGDSTNYADSVKGRFTISRDNEKNTVYLQMNSLKPEDTEVYYCNADRFADYDYWGQGTQVTVSS”, for which the “polyreactivity (PSR sort gate)” value was “low polyreactivity”.

On to “HVQLVESGGGLVQAGGSLRLSCAASGRTFLVYAMGWDRQAPGKERELVADITRSGGRTYYADSVKGRITISRDNAKNTVYLQINSLKPEDTAVYYCAARPYFVGPIEYDYWGQGTQVTVSS”, for which the “polyreactivity (PSR sort gate)” value was “high polyreactivity”.

As to “HVQLVESGGGLVQAGGSLRLSCAASGRTFYFNTMGWYRQAPGKEMELVASISYGSNTNYADSVKGRFTISRDNAKNTVYLQMNSLKPEDTAVYFCAVRWVYRTSSWGARYGRYDYWGQGTQVTVSS”, the “polyreactivity (PSR sort gate)” value is recorded as “high polyreactivity”.
